B1: OAS1 (parent)
chain: LQLGEGVEFDVLPAFDALGQLTGG
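Note: lentivirally expressed fusions sorted by FACS into six bins by GFP to DsRed ratio, PSI derived from sequencing read proportions per bin multiplied by bin number.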

Variants of: B1
Experiment: protein stability index of a GFP-peptide fusion (GPS, HEK-293T) (PSI 1-6); higher = more stable
Conditions: c terminus: a fixed tail appended
Variant LQLGEGVEFQVLPAFDALGQLTGG [D10Q] has a protein stability index of 1.8. LQLGEGVEFKVLPAFDALGQLTGG [D10K] showed a protein stability index of 1.99. LQLGEGVEFVVLPAFDALGQLTGG [D10V] gave a protein stability index of 2.77. Variant LQLGEGVEFFVLPAFDALGQLTGG [D10F] has a protein stability index of 1.64. In the case of LQLGEGVEFPVLPAFDALGQLTGG [D10P], the protein stability index is reported as 2.53. In the case of LQLGEGVEFCVLPAFDALGQLTGG [D10C], the protein stability index is reported as 2.3. LQLGEGLEFDVLPAFDALGQLTGG [V7L] showed a protein stability index of 3.26. With LQLGEGSEFDVLPAFDALGQLTGG [V7S] the protein stability index was 2.11. Variant LQLGEGREFDVLPAFDALGQLTGG [V7R] has a protein stability index of 2.27. LQLGEGYEFDVLPAFDALGQLTGG [V7Y] gave a protein stability index of 1.55. Work on LQLGEGQEFDVLPAFDALGQLTGG [V7Q] yielded a protein stability index of 2.86. Work on LQLGEGTEFDVLPAFDALGQLTGG [V7T] yielded a protein stability index of 2.41. In the case of LQLGEGNEFDVLPAFDALGQLTGG [V7N], the protein stability index is reported as 2.46. For LQLGEGMEFDVLPAFDALGQLTGG [V7M], the protein stability index was 1.52. For LQLGEGPEFDVLPAFDALGQLTGG [V7P], the protein stability index was 1.67. With LQLGEGWEFDVLPAFDALGQLTGG [V7W] the protein stability index was 2.81. In the case of LQLGEGVEFDVLPAFQALGQLTGG [D16Q], the protein stability index is reported as 2.29. LQLGEGVEFDVLPAFAALGQLTGG [D16A] showed a protein stability index of 1.79. With LQLGEGVEFDVLPAFRALGQLTGG [D16R] the protein stability index was 1.31. Work on LQLGEGVEFDVLPAFSALGQLTGG [D16S] yielded a protein stability index of 1.07. Variant LQLGEGVEFDVLPAFKALGQLTGG [D16K] has a protein stability index of 1.81. In the case of LQLGEGVEFDVLPAFIALGQLTGG [D16I], the protein stability index is reported as 3.52. Variant LQLGEGVEFDVLPAFPALGQLTGG [D16P] has a protein stability index of 2.46. Variant LQLGEGVEFDVLPAFCALGQLTGG [D16C] has a protein stability index of 1.34. Variant LQLGEGVEFDVLPAFHALGQLTGG [D16H] has a protein stability index of 2.26. LQLGEGVEFDVLPAFTALGQLTGG [D16T] gave a protein stability index of 1.99. LQLGEGVEFDVLYAFDALGQLTGG [P13Y] showed a protein stability index of 2.03. In the case of LQLGEGVEFDVLRAFDALGQLTGG [P13R], the protein stability index is reported as 1.29. LQLGEGVEFDVLGAFDALGQLTGG [P13G] gave a protein stability index of 1.31. LQLGEGVEFDVLHAFDALGQLTGG [P13H] showed a protein stability index of 2.21. For LQLGEGVEFDVLDAFDALGQLTGG [P13D], the protein stability index was 1.4. In the case of LQLGEGVEFDVLNAFDALGQLTGG [P13N], the protein stability index is reported as 2.69. For LQLGEGVWFDVLPAFDALGQLTGG [E8W], the protein stability index was 1.98. In the case of LQLGEGVKFDVLPAFDALGQLTGG [E8K], the protein stability index is reported as 1.83. Variant LQLGEGVTFDVLPAFDALGQLTGG [E8T] has a protein stability index of 1.42. LQLGEGVSFDVLPAFDALGQLTGG [E8S] gave a protein stability index of 1.99. LQLGEGVIFDVLPAFDALGQLTGG [E8I] gave a protein stability index of 2.37. In the case of LQLGEGVHFDVLPAFDALGQLTGG [E8H], the protein stability index is reported as 2.07. LQLGEGVPFDVLPAFDALGQLTGG [E8P] showed a protein stability index of 2.09. In the case of LQLGEGVLFDVLPAFDALGQLTGG [E8L], the protein stability index is reported as 1.5. LQLGEGVQFDVLPAFDALGQLTGG [E8Q] gave a protein stability index of 1.67. LQLGEGVDFDVLPAFDALGQLTGG [E8D] gave a protein stability index of 2.54. In the case of LQLGEGVNFDVLPAFDALGQLTGG [E8N], the protein stability index is reported as 2.4. Work on LQLGEGVYFDVLPAFDALGQLTGG [E8Y] yielded a protein stability index of 2.67. Variant LQLGEGVEFDVLPAFDPLGQLTGG [A17P] has a protein stability index of 2.41. Work on LQLGEGVEFDVLPAFDQLGQLTGG [A17Q] yielded a protein stability index of 1.61. LQLGEGVEFDVLPAFDCLGQLTGG [A17C] gave a protein stability index of 2.01. Variant LQLGEGVEFDVLPAFDILGQLTGG [A17I] has a protein stability index of 1.53. Work on LQLGEGVEFDVLPAFDMLGQLTGG [A17M] yielded a protein stability index of 2.14. Variant LQLGEGVEFDVLPAFDVLGQLTGG [A17V] has a protein stability index of 2.86. With LQLGEGVEFDVLPAFDFLGQLTGG [A17F] the protein stability index was 3.94. For LQLGEGVEFDVLPAFDSLGQLTGG [A17S], the protein stability index was 1.84. LQLGEGVEFDVLPAFDNLGQLTGG [A17N] showed a protein stability index of 2.28. For LQLGEGVEFDVLPAFDLLGQLTGG [A17L], the protein stability index was 1.9. In the case of LQLGEGVEFDVLPAFDRLGQLTGG [A17R], the protein stability index is reported as 2.05. LQLGEGVEFDVLPAFDYLGQLTGG [A17Y] showed a protein stability index of 2.48. Variant LQLGEGVEFDVLPAFDTLGQLTGG [A17T] has a protein stability index of 2.6. For LQLGEGVEFDVLPAFDWLGQLTGG [A17W], the protein stability index was 3.13. LQLGEGVEFDVLPAFDGLGQLTGG [A17G] gave a protein stability index of 2.01. In the case of LQLGEGVEFDVLPAFDHLGQLTGG [A17H], the protein stability index is reported as 1.76. In the case of LQLGEGVEFDVLPAFDDLGQLTGG [A17D], the protein stability index is reported as 2.14. Work on LQLGEGVEFDVLPAFDATGQLTGG [L18T] yielded a protein stability index of 2.48. With LQLGEGVEFDVLPAFDAIGQLTGG [L18I] the protein stability index was 1.26. LQLGEGVEFDVLPAFDARGQLTGG [L18R] gave a protein stability index of 2.79. LQLGEGVEFDVLPAFDANGQLTGG [L18N] gave a protein stability index of 2.17. In the case of LQLGEGVEFDVLPAFDAAGQLTGG [L18A], the protein stability index is reported as 3.35. LQLGEGVEFDVLPAFDACGQLTGG [L18C] gave a protein stability index of 2.62. For LQLGEGVEFDVLPAFDAFGQLTGG [L18F], the protein stability index was 1.14. Variant LQLGEGVEFDVLPAFDASGQLTGG [L18S] has a protein stability index of 2.38. Variant LQLGEGVEFDVLPAFDAMGQLTGG [L18M] has a protein stability index of 1.66. For LQLGEGVEFDVLPAFDAQGQLTGG [L18Q], the protein stability index was 2.36. In the case of LQLGEGVEFDVLPAFDAWGQLTGG [L18W], the protein stability index is reported as 3.14. LQLGEGVEFDVLPAFDAEGQLTGG [L18E] gave a protein stability index of 3.1. LQLGEGVEFDVLPAFDAYGQLTGG [L18Y] gave a protein stability index of 2.13. LQLGEGVEFDVLPAFDAVGQLTGG [L18V] gave a protein stability index of 2. LQLGEGVEFDVLPAFDAGGQLTGG [L18G] showed a protein stability index of 3.58. For LQLGEGVEFDVLPAFDADGQLTGG [L18D], the protein stability index was 3.47. For LQLGEGVEFDVNPAFDALGQLTGG [L12N], the protein stability index was 2.99. With LQLGEGVEFDVDPAFDALGQLTGG [L12D] the protein stability index was 4.05. LQLGEGVEFDVTPAFDALGQLTGG [L12T] showed a protein stability index of 2.4. With LQLGEGVEFDVVPAFDALGQLTGG [L12V] the protein stability index was 2.24. For LQLGEGVEFDVKPAFDALGQLTGG [L12K], the protein stability index was 2.94. Variant LQLGEGVEFDVFPAFDALGQLTGG [L12F] has a protein stability index of 1.54. Work on LQLGEGVEFDVRPAFDALGQLTGG [L12R] yielded a protein stability index of 2.69. Work on LQLGEGVEFDVIPAFDALGQLTGG [L12I] yielded a protein stability index of 1.64. In the case of LQLGEGVEFDVWPAFDALGQLTGG [L12W], the protein stability index is reported as 1.13. Work on LQLGEGVEFDVSPAFDALGQLTGG [L12S] yielded a protein stability index of 3.82. With LQLGEGVEFDVPPAFDALGQLTGG [L12P] the protein stability index was 2.48. LQLGEGVEFDVQPAFDALGQLTGG [L12Q] gave a protein stability index of 2.59. In the case of LQLGEGVEFDVEPAFDALGQLTGG [L12E], the protein stability index is reported as 3.98. Work on LQLGEGVEFDVHPAFDALGQLTGG [L12H] yielded a protein stability index of 3.08. Work on LQLGEGVEFDVMPAFDALGQLTGG [L12M] yielded a protein stability index of 3.1. Work on LQLGEGVEFDVGPAFDALGQLTGG [L12G] yielded a protein stability index of 2.69. With LQLGEGVEFDVYPAFDALGQLTGG [L12Y] the protein stability index was 1.72.
